Key:
[1] = biological target: mouse SOD1 expressed in mouse neuroblastoma cells (MNA) (mouse, UniProt P08228 2-154); assay: IP from mouse neuroblastoma (MNA) cell lysate, immunoblot rabbit anti-SOD1
[2] = biological target: T1, b-hSOD1-B (amino acids 1 to 77) (human, UniProt P00441 2-78); assay: ELISA, captured b-hSOD1 truncations
T1 construct: also called B truncation; not shown: N-terminal thioredoxin (trx) domain from vector pET32-a-myc; C-terminal myc and 6 histidine tags

[3] = biological target: T2, b-hSOD1-C (amino acids 1 to 116) (human, UniProt P00441 2-117); assay: ELISA, captured b-hSOD1 truncations
T2 construct: also called C truncation; not shown: N-terminal thioredoxin (trx) domain from vector pET32-a-myc; C-terminal myc and 6 histidine tags
T2 sequence (P00441 2-117): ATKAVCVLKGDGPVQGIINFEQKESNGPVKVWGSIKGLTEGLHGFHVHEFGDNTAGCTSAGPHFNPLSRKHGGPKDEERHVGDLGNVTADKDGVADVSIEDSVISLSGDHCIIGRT

[4] = biological target: T3, b-hSOD1-D (amino acids 39 to 153) (human, UniProt P00441 40-154); assay: ELISA, captured b-hSOD1 truncations
T3 construct: also called D truncation; not shown: N-terminal thioredoxin (trx) domain from vector pET32-a-myc; C-terminal myc and 6 histidine tags
T3 sequence (P00441 40-154): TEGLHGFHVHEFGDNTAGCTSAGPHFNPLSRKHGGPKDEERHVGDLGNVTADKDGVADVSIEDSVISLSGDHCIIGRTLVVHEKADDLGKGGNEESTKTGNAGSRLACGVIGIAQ

[5] = biological target: T4, b-hSOD1-I (amino acids 39 to 116) (human, UniProt P00441 39-117); assay: ELISA, captured b-hSOD1 truncations
T4 construct: also called I truncation; not shown: N-terminal thioredoxin (trx) domain from vector pET32-a-myc; C-terminal myc and 6 histidine tags
T4 sequence (P00441 39-117): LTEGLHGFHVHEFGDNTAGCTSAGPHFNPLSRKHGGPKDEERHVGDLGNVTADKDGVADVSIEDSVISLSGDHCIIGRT

[6] = biological target: T5, hSOD1 purified from human erythrocytes (human, UniProt P00441 2-154); assay: Octet QK, hSOD1 coupled to biosensor, antibody in solution
T5 construct: Bought from Sigma; also called E-hSOD1
T5 sequence (P00441 2-154): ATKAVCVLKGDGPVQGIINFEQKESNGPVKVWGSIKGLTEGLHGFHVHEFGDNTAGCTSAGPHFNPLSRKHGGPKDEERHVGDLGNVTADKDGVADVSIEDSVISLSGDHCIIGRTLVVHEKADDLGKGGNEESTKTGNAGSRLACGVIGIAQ

[7] = biological target: T6, bacterially-expressed hSOD1 (human, UniProt P00441 2-154); assay: as above
T6 construct: Not fully metallated, expected to be partly misfolded; also called b-hSOD1; GST-b-hSOD1; not shown: N-terminal glutathione sulfotransferase (GST) domain from vector pGEX-4T-3
T6 sequence (P00441 2-154): as above

b-hSOD1-OX = biological target: T7, b-hSOD1-OX (oxidized with 10 mM hydrogen peroxide for 24 hours; residues not given ; Oxidised with 10 mM hydrogen peroxide for 24 hours. The oxidised residues are not stated, so the letters are left …); assay: ELISA on coated protein, antibody titrated, OD 405nm
T7 construct: also called oxidized bacterially-expressed hSOD1 (GST fusion); not shown: N-terminal GST domain of pGEX-4T-3 and the vector-derived linker
T7 sequence (chain, as listed by the source limits assumed): as the sequence (P00441 2-154) above

T1 sequence (P00441 2-78): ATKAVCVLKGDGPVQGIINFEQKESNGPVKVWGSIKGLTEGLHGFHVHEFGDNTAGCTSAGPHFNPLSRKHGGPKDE

B1: 311-3 (antibody, V domains shown)
VH: QVQLQQWGAGLLKPSETLSLTCAVYGGSFSGYYWNWIRQPPGMGLEWIGEIHQSGGPHYNPSLKSRVSISVDTSKNQVNLKLSSVTAADTAIYYCTELDDYWGQGTLVTVSS
VL: EIVLTQSPATLSLSPGERATLSCRASQSVSSYLAWYQQKPGQAPRLLIYNASNRATGIPARFSGSGSGTDFTLTIGSLEPEDFAVYYCQQRSNWPRTFGQGTKVEIK
notes: Human IgG kappa monoclonal from HuMab mouse hybridoma
B1: no binding [1].

B2: 14-173 (antibody, V domains shown)
VH: EVQLVESGGGLVQPGGSLRLSCAASGFTFSSFWMSWVRQAPGKGLEWVANIKHDGSEQDYVDSVKGRFTISRDNAKNSLYLQMNSLRAEDTAVYYCARGGIWFGPWGQGTLVTVSS
VL: VIWMTQSPSLLSASTGDRVTISCRMSQGISSYLAWYQQKPGKAPEVLIYAVSTLQSGVPSRFSGSGSGTDFTLTISCLQSEDFATYYCQQYYSFPYTFGQGTKLEIK
notes: Human IgG kappa monoclonal from HuMab mouse hybridoma; Conformation-dependent antibody
B2: no binding [2]; no binding [3]; no binding [4]. For the same binder, the binding result [5] was “no binding”, the Kd [6] was 3.5 nM and the Kd [7] was 19 nM. B2: binds [1].

B3: 358-22 (antibody, V domains shown)
VH: QVQLVESGGGVVQPGRSLRLSCAASGFTFRSYGMHWVRQAPGKGLEWVTLIWYDGSNKYYADSVKGRFTISRDNSKNTLYLQMNSLRVEDTAVYYCAREGFNWDAFDIWGQGTMVTVSS
VL: EIVLTQSPGTLSLSPGERATLSCRASQSVRISYLAWYQQKPGQAPRLLIYGTFSRATGIPDRFSGSGSGTDFTLTISRLEPEDFAVYYCQQYGSSMYTFGQGTKLEIK
notes: as for B2
B3: binds [1].

B4: 306-155 (antibody, V domains shown)
VH: EVQLVQSGAEVKKPGESLKISCKGSGYSFTSYWIGWVRQMPGKGLEWMGIIYPGDSDTRYSPSFQGQVTISADKSISTAYLQWSSLKASDTAMYYCARQGSGWYGNYFDYWGQGTLVTVSS
VL: EIVLTQSPGTLSLSPGERATLSCRASQSFSRGYLAWYQQKPGQAPRLLIYGASSRVTGIPDRFSGSGSGTDFTLTISRLEPEDFAVYYCQQYDSSPYTFGQGTKLEIK
notes: as for B2
B4: no binding [1].

B5: 303-8 (antibody, V domains shown)
VH: QVQLVQSGAEVKKPGSSVKVSCKASGGSFSIYVISWVRQAPGQGLEWMGRIIPILGTTNYAQKFQGRVTITADKSTSTAYMELSSLRSEDTAVYYCARPDSPNHSNTFDYWGQGTLVTVSS
VL: DIQMTQSPSSLSASVGDRVTITCRASQGISSWLAWYQQKPEKAPKSLIYGASSLQSGVPSRFSGSGSGTDFTLTISSLQPEDFATYYCQQYNSYPYTFGQGTKLEIK
notes: as for B2
B5: no binding [2]; no binding [3]; no binding [4]. For the same binder, the binding result [5] was “no binding”, the Kd [6] was 8.8 nM and the Kd [7] was 1.2 nM. B5: binds (b-hSOD1-OX).

B6: 358-11 (antibody, V domains shown)
VH: QVQLVESGGGVVQPGRSLRLSCAASGFTFSNYGIHWVRQAPGKGLEWVAIIWHDGSNSYYVDSVKGRFTMSRDNSKNTVYLQMNSLRAEDTAVYFCARIIGGAFDIWGQGTMVTVSS
VL: DIQMTQSPSSLSASVGDRVTITCRASQGISSWLAWYQQKPEKAPKSLIYAASSLQSGVPSRFSGSGSGTDFTLTISSLQPEDFATYYCQQYNSYPITFGQGTRLEIK
notes: as for B1
B6: no binding [1].

B7: 591-37 (antibody, V domains shown)
VH: EVQLVQSGGGLVHPGGSLRLSCAGSGFTFSRYALHWVRQAPGKGLEWVSAIGIGGGTFYADSVKGRFTISRDNAKNSLYLQMNSLRAEDMAVYYCARDTYYDFFDAFDIWGQGTMVTVSS
VL: DIQMTQSPSSLSASVGDRVTITCRASQGISSWLAWYQQKPEKAPKSLIYAASSLQSGVPSRFSGSGSGTDFTLTISSLQPEDFATYYCQQYDSYPLTFGGGTKVEIK
notes: as for B1
B7: no binding [1].

B8: 591-33 (antibody, V domains shown)
VH: EVQLVESGGGLVQPGGSLRLSCAASGFTFSRYWMSWVRQAPGKGLEWMANIKQDGSETHYVDSVKGRFTISRDNAKNSLYLQMNSLRAEDTAVYYCAIGDYWGQGTLVTVSS
VL: DIQMTQSPSSLSASVGDRVTITCRASQDISSWLAWYQQKPEKAPKSLIYAASSLQSGVPSRFSGSGSGTDFTLTISSLQPEDFATYYCQQYKSYPLTFGGGTKVEIK
notes: as for B1
B8: no binding [1].

B9: 114-41 (antibody, V domains shown)
VH: QVQLVQSGAEVKTPGASVKVSCKASGYTFTSFGISWVRQAPGQGLEWMGWISVYNDYTNYAQKFQGRVTMTTDTSTSTAYMELRSLRSDDTAMYYCARKRGGDMDYWGQGTLVTVSS
VL: DIQMTQSPSSVSASVGDRVTITCRASQDISSWLAWYQHKPGKAPKLLIYLASSLQSGVPSRFSGSGSGTDFTLTISSLQPEDFATYYCQQANSFPWTFGQGTKVEIK
notes: as for B2
B9: no binding [1].

B10: 597-120 (antibody, V domains shown)
VH: EVHLVESGGGLVQSGGSLRLSCAASGFSISGYWMSWVRQAPGKGLEWVANIKQDGGEKYYGDSVKGRFTISRDNAENSLYLQMSSLRAEDTAVYYCVMAGGLDYWGQGALVTVSS
VL: EIVLTQSPATLSLSPGERATLSCRASQSVSSYLAWYQQKPGQAPRLLIYDASNRATGIPARFSGSGSGTDFTLTISSLEPEDFAVYYCQQRSNWYTFGQGTKLEIK
notes: as for B2
B10: no binding [1].

B11: 312-19 (antibody, V domains shown)
VH: QVQLVQSGAEVKKPGSSVKVSCKASGGTFNNFVIGWVRQAPGQGLEWMGRIIPILDIANYAQKFQGRVTITADKSTSTVYMELNSLRSEDTAVYYCARTGNYYKPYDYWGQGTLVTVSS
VL: EIVLTQSPDFQSVTPKEKVTITCRASQSIGSSLHWYQQKPDQSPKLLIKYASQSFSGVPSRFSGSGSGTDFTLTINSLEAEDAAAYYCHQSSSLPITFGQGTRLEIK
notes: as for B2
B11: no binding [1].

Source: US20150322167A1 (UNIVERSITY OF MASSACHUSETTS, published 2015)
